We go through one substance from patent US20220008570A1.

The target in the test is human CD33 (human) (UniProt P20138). Kind of test: cell-based or functional assay.
UniProt P20138, sequence (P20138 18-364 limits assumed): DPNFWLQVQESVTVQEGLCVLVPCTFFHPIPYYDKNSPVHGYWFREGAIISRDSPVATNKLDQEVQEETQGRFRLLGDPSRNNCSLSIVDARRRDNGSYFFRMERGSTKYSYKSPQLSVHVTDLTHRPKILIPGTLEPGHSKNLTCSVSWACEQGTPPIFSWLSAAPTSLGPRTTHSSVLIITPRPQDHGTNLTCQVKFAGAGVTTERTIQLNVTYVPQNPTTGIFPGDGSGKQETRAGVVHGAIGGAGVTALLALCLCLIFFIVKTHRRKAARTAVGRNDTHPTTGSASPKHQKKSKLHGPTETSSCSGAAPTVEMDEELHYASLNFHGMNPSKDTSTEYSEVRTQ

In the case of “Lintuzumab conjugated with Actinium-225 (Ac225) (antibody)”, the LD50 (dose at which 50% of the cells were killed), cytotoxicity on HL60 leukemia cell suspensions is 8 pCi per mL.
